In test [1] the target is T1, human CXCR5 (human, UniProt P32302 1-372).
T1 construct: whole, on cells; also called hu-CHO; CHO-CXCR5 cells
T1 sequence (looked up): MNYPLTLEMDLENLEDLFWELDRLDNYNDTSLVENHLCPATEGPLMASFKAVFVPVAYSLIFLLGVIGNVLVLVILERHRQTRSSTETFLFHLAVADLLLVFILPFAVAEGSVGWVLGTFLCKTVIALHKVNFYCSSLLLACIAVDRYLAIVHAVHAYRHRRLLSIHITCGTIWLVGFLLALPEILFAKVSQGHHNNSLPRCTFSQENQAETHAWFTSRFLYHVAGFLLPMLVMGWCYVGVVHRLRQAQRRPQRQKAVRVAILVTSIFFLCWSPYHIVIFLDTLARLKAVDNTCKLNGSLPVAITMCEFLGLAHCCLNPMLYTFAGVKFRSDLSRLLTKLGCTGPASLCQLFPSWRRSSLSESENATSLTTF
Nature of the test: flow cytometry on CHO-CXCR5 cells, IgG titration. From the text: This example describes a cellular binding assay to determine the EC₅₀ for anti-CXCR5 antibodies binding to human CXCR5. […] In this example, CHO-CXCR5 cells were lifted from culture flasks using non-enzymatic Cell Dissociation Buffer—PBS based (Life Technologies #13151-014). Cells were resuspended in FACS Buffer (2% Fetal Bovine Serum in PBS) at 1×10⁶ cells/ml and […] were aliquoted into the wells of a 96-well plate. Plated cells were spun down and the supernatant discarded. Cells were resuspended in 30 μl FACS Buffer serially diluted concentrations of CXCR5 IgG in triplicate. Plates were incubated for 1 hr at 4° C. and then washed 2× with FACS Buffer. Cells were resuspended in 50 μl goat anti-human IgG (γ-chain specific)-PE conjugated secondary antibody (Southern Biotech #2040-09) diluted 1:500 in FACS Buffer. Cells were further incubated for 30 min at 4° C. and then washed 1× with FACS Buffer. The cells were resuspended in a final volume of 30 μl FACS Buffer and analyzed using the Intellicyt Flow Cytometer. Median fluorescence in the FL-2H channel was determined using FlowJo software and EC₅₀ value was determined by plotting the data in GraphPad Prism and analyzing using a variable slope non-linear regression.
A general note: Flow cytometry measures light scatter and fluorescence of single cells or particles in a stream.

Test [2] concerns the target T2, murine CXCR5 (murine, UniProt Q04683 1-374).
T2 construct: whole, on cells; Endogenous receptor on mouse spleen cells cultured with LPS
T2 sequence (looked up): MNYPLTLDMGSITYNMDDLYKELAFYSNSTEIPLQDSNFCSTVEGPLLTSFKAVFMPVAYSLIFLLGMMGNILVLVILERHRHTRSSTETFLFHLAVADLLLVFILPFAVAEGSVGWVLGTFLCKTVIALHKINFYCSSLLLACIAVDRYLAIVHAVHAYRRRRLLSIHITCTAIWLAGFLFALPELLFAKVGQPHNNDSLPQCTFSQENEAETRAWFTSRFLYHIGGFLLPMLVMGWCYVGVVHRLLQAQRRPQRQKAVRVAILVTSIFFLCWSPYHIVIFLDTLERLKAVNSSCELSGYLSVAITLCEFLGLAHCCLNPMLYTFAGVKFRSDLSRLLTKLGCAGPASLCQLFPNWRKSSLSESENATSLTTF
The test can be described thus: flow cytometry on LPS-cultured mouse spleen cells, IgG titration. The protocol: In this example, mouse spleen cells were harvested from either C57B1/6 or athymic nu/nu mice. Cells were cultured at 2×10⁶ per ml with LPS at 10 micrograms per ml in RPMI+10% FCS for up to 4 days at 37° C. in 5% CO2. Cells were harvested, washed and resuspended in FACS Buffer (2% Fetal Bovine Serum in PBS) at 1×10⁶ cells/ml and 50 μl (0.5×10⁵ cells) were aliquoted into the wells of a 96-well plate. Plated cells were spun down and the supernatant discarded. Cells were resuspended in 30 μl FACS Buffer containing serially diluted concentrations of CXCR5 IgG in triplicate. Plates were incubated for 1 hr at 4° C. and then washed 2x with FACS Buffer. Cells were resuspended in 50 μl goat anti-human IgG (γ-chain specific)-PE conjugated secondary antibody (Southern Biotech #2040-09) diluted 1:500 in FACS Buffer. Cells were further incubated for 30 min at 4° C. and then washed 1× with FACS Buffer. The cells were resuspended in a final volume of 30 μl FACS Buffer and analyzed using the Intellicyt Flow Cytometer. Median fluorescence in the FL-2H channel was determined using FlowJo software and EC₅₀ value was determined by plotting the data in GraphPad Prism and analyzing using a variable slope non-linear regression.

In test [3] the target is T1, human CXCR5. Nature of the test: cell-based or functional assay.
Test [4] concerns the target T1, human CXCR5. The test can be described thus: cell-based or functional assay. The source holds these as a separate data set.

Usually EC50 stands for the concentration that produces a half-maximal response. Higher therefore signals lower potency in that assay.

B1: 11G3 (antibody, V domains shown)
VH: EVQLVQSGGGVVQPGRSLRLSCAASGFTFSSYAMHWVRQAPGKGLEWVAVISYDGSNKYYADSVKGRFTISRDNSKNTLYLQMNSLRAEDTAVYYCARLTRGSDYYGSGRSMNDYWGQGTLVTVSS
VL: DIVMTQTPLSLPVTLGQPASISCRSSQSLVHSDGNTYLNWFQQRPGQSPRRLIYKVSNRDSGVPDRFSGSGSGTDFTLKISRVEAEDVGVYYCMQGTHWPPTFGQGTKVEIK
notes: tested as human IgG
B1: the EC50 in test [1] worked out at 2.6 nM; in test [2] it was 37 nM.

B2: 12D3 (antibody, V domains shown)
VH: EVQLVESGGGLVKPGRSLRLSCAASGFTFSSYAMHWVRQAPGKGLEWVAVISYDGSNKYYADSVKGRFTISRDNSKNTLYLQMNSLRAEDTAVYYCARLRWLDYWGQGTLVTVSS
VL: QPVLTQPASVSGSPGQSIAISCTGTSSDVGSNNRVSWYQQHPGKAPKLMIYEVDKRPSGVSNRFSGSKSGNTASLTISGLQAEDEADYYCGTWDSSLSAYVFGTGTKLTVL
notes: tested as human IgG
B2: the results for the EC50 in test [1] and in test [2] were 1.3 nM and 27 nM, respectively.

B3: 11A7 (antibody, human IgG1, V domains shown)
VH: EVQLVESGGGLVQPGGSLRLSCAASGFTVSSNYMSWVRQAPGKGLEWVSVIYSGGSTYYADSVKGRFTISRHNSKNTLYLQMNSLRAEDTAVYYCARGYVVWGQGTLVTVSS
VL: QPVLTQPPSVSKDLRQTATLTCTGNSNNVGNQGATWLQQHQGHPPKLLSYKNNNRPSGISERFSASRSGNTASLTITGLQPEDEADYYCSAWDSSLSAWVFGGGTQLTVL
notes: 'Antibody 11A7 is a fully human IgG1'
In test [1], B3 had a 50% effective concentration (EC50) of 0.9 nM. The “IC50 [nM] of mAbs in calcium flux assay using CHO-CXCR5 cells (challenge with 9 nM CXCL13)” value in test [3] is 5 nM. The “IC50 [nM] of mAbs in chemotaxis assay using HS-Sultan cells (25 nM CXCL13)” value in test [4] was 4.8 nM.
